Laboratory results reported in patent US20080311122A1, “Antagonists of Hmgb1 and/or Rage and Methods of Use Thereof” (Medimmune, LLC, priority 2005, published 2008).
Entries after “also recorded” stand apart in the source; their conditions may differ.

B1: S16: human anti-HMG1 antibody, ATCC PTA-6259; VL/VH aa SEQ ID NO: 13/15 (antibody, listed as Homo sapiens, V domains shown)
VH: EVQLLESGGGLVQPGGSLRLSCAASGFTFSWYSMLWVRQAPGKGLEWVSYISPSGGFTNYADSVKGRFTISRDNSKNTLYLQMNSLRAEDTAVYYCARWDYNSGWYYDHWGQGTLVTVSS
VL: AQDIQMTQSPDTLSLSPGERATLSCRASQSVNSRNLAWYQQKPGQAPRLLIYGASTRATGIPDRFSGSVSGTEFTLTISSLQPDDFATYYCQQYNSYFTFGQGTKLEIK
B2: E11: human anti-HMG1 antibody, recognizes HMG1 A-Box; VL/VH aa SEQ ID NO: 24/26 (antibody, listed as Homo sapiens, V domains shown)
VH: EVQLLESGGGLVQPGGSLRLSCAASGFTFSRYQMNWVRQAPGKGLEWVSSISPSGGHTHYADSVKGRFTISRDNSKNTLYLQMNSLRAEDTAVYYCAKDGRQGKISTVDHWGQGTLVTVSS
VL: AQDIQMTQSPGTLSLSPGERATLSCRASQSVRSNFLAWYQQKPGQAPRLLIYGASRRASGIPDRFSGSGFGADFTLSISRLEPEDFAVYYCQQYGSSPNTFGQGSRVEIK

How the values were obtained:
[1] = target: T1, HMG1 (recombinant, native; immobilized, soluble) (Homo sapiens, UniProt P09429); assay: Direct and sandwich (capture) ELISA comparing forms of HMG1; format: binding; conditions: capture ELISA
T1 construct: made in house; host or cells: E. coli
T1 sequence (P09429 1-215): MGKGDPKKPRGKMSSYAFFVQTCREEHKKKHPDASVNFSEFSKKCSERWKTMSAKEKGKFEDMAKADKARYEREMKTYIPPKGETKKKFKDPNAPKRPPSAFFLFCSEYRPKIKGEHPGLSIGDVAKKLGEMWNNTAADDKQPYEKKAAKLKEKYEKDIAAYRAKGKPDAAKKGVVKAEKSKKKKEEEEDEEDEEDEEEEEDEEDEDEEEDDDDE
Summary of the method: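 Direct format: HMGB-1 coated at 5 μg/ml, human anti-HMG1 antibodies titrated, anti-human IgG-HRP, A450. Sandwich format: antibodies (from 20 μg/ml, serial dilutions) captured on anti-human IgG Fc, then soluble HMGB1 at 2 μg/ml (native 0.7 μg/ml), mouse anti-HMGB1 at 1 μg/ml, anti-mouse IgG-HRP, A450; steps 1 h, 37° C.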

[2] = system: LPS-induced ALI; assay: LPS induced acute lung injury (ALI) mouse model; format: in vivo; conditions: percent protection, isotype control subtracted
Description: Induction of LPS-induced ALI: LPS (E. coli strain 01111:B4. Sigma, St. Louis, Mo.) was administered intranasally to isoflurane (Baxter Pharmaceuticals, Deerfield, Ill.) anesthetized adult BALB/c mice on day 1 at a dose of 5-10 ug per mouse in 50-100 μl. For determination of HMG1 levels animals were euthanized by CO2 asphyxiation at 4, 8, 24, 32 and 48 hours post LPS administration, and BronchoAlvcolar Lavarge (BAL) and other samples collected for protein analysis and histopathology. For treatment protocols 24 hours post LPS dosing, anti-HMGB1 antibodies, HMG1 A-box Fc fusion or controls were administered intraperitoneally (i.p.) at a dose of 10 mg/kg in 100 ul volumes. On day 3 (48 h post LPS dosing), animals were euthanized by CO2 asphyxiation and samples (BALs, blood, and lungs) collected for analysis.
BAL Sample Collection: lungs were flushed three times with ˜0.8 ml Phosphate buffered saline (PBS, pH 7.2, GIBCO, Rockville, Md.) using a syringe with a catheter tubing. BAL samples collected were centrifuged at 1,200 rpm for 10 min at 4 C, supernatant collected and stored at −80 C for protein (e.g. HMGB1) quantitation, and cells in pellet were resuspended and transferred to cytoslides, fixed, GIEMSA stained, and BAL cellularity determined visually with the aid of a microscope.

[3] = target: T2, native (thymus) HMG1 binding to RAGE/Fc (Bos taurus, UniProt P10103); assay: Inhibition of native HMG1 binding to Rage-Fc (ELISA); set-up: species or system bovine; conditions: at the concentrations tested
T2 construct: from tissue; host or cells: bovine (calf) thymus
T2 sequence (P10103 2-215 limits assumed): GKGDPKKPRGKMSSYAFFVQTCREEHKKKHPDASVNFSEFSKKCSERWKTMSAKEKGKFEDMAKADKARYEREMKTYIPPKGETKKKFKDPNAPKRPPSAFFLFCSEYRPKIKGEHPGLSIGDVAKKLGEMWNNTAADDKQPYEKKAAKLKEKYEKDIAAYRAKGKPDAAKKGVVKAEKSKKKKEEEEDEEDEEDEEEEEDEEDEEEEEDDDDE
Description: Inhibition of Native HMG1 Binding to Rage-Fc: Recombinant RAGE/Fc was coated on ELISA plate at 5 μg/mL, 0.1 mL/well. HMGB1 (0.5 μg/mL) was pre-incubated with anti-HMGB1 mAb clone E-11 or G-4 at different concentrations for 0.5 hr. After blocking the plate, anti-HMGB1 mAb pre-incubated HMGB1 was added to RAGE/Fc coated plate for 2 hr. RAGE bound HMGB1 was detected with Biotin labeled anti-HMGB1 pAb.

[4] = system: CpG2216+thymus HMG1 induced IFN-a release (TLR9 signaling); assay: Inhibition of HMG1 mediated enhancement of TLR9 signaling, CpG2216 + thymus HMG1 in bone marrow cells; format: cell-based; conditions: mouse bone marrow cells
Description: HMGB1+TLR Ligand: Freshly isolated bone marrow cells were stimulated with TLR ligands (TLR3:PolyIC@5 μg/mL; TLR4:LPS@2.5 ng/mL; TLR5:flagellin@0.25 μg/mL; TLR7:polyU@4 μg/mL or R837@5 μg/mL; TLR9:CpG2216@1 μM) with or without presence of thymus HMGB1 (10 μg/mL) for 24 hr. Cytokines in the supernatant were measured by ELISA.
Inhibition of HMG1 Mediated Enhancement of TLR Signaling: Freshly isolated bone marrow cells were stimulated with TLR9 ligand CpG2216 (0.3 μM) and thymus HMGB1 (10 μg/mL) in the presence of different concentration of the anti-HMGB1 mAb E11 or control human IgG for 24 hr and IFN-a in the supernatant was measured by ELISA. CpG2216, HMGB1 and nonstimulatory DNA were used alone or in combination as controls for the assay.

Molecule | binding to native nuclear, necrotic (released) and activated HMG1 [1] | in vivo ALI [2] [%] | block of native (thymus) HMG1 binding to RAGE [3] | inhibition of IFN-a release induced by CpG + thymus HMG1 [4] | inhibition of IFN-a release induced by CpG alone [4]
B1 | little difference in binding to the various native forms of HMG1 |  |  |  | 
B2 |  | 37 | significant ability to block the binding of native HMG1 to RAGE; also recorded: can block native HMG1 binding | could be blocked; also recorded: inhibited the release of INF-a induced by CpG2216+thymus HMG1 | not blocked; also recorded: Neither E11, G4 or Rage/Fc inhibited
